Test [1] addresses T1, GST-YoeB fusion protein (Escherichia coli, UniProt P69348 1-84).
T1 construct: also called YoeB-GST; GST-YoeB fusion polypeptide; not shown: glutathione S-transferase (GST) fusion partner encoded by the pET42a expression vector (Novagen); vector-encoded linker of pET42a between GST and the EcoRI cloning site; not described
T1 sequence: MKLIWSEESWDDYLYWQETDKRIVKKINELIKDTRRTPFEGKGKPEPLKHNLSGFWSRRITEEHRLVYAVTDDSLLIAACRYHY
As to the kind of experiment: peptide array, low stringency.

Test [2] concerns the target T1, GST-YoeB fusion protein. As to the kind of experiment: peptide array on cellulose membrane, low stringency, GST-YoeB probe, anti-GST antibody and chemiluminescence.
Test [3] addresses T1, GST-YoeB fusion protein. As to the kind of experiment: peptide array on cellulose membrane, single-residue shift, high stringency, GST-YoeB probe, anti-GST antibody and chemiluminescence. The procedure:
(§1) Following incubation, the membrane was washed once in TBS-T then supplemented with 10 ml suspension comprising TBS, mouse anti-GST antibody and horseradish peroxidase conjugated goat anti-mouse antibody in the appropriate titers. Following 1 hour incubation at room temperature the membrane was briefly washed with TBS-T and TBS.

In test [4] the target is T1, GST-YoeB fusion protein. Kind of test: peptide array of single-replacement analogs. The procedure:
as §1

The target of test [5] is T1, GST-YoeB fusion protein. Kind of test: peptide array on cellulose membrane, anti-GST detection. As to the method:
as §1

Turning to DSIDSLKSGKGTE [YefM75-87 peptide], in test [1], the binding result is on record as “binds”.
Take YSEARQNLSATMM [YefM15-27 peptide]: the binding result in test [2] is recorded as “binds”.

B1: 12-24 (peptide)
peptide: TISYSEARQNLSA
notes: Cell not labelled; also called YefM12-24 peptide
B1: the binding result in test [3] is recorded as “binds”.

B2: 10-22 (peptide)
peptide: MRTISYSEARQNL
notes: Cell not labelled; also called YefM10-22 peptide
On to B2, for which the binding result in test [3] is recorded as “binds”.
For RTISYSEARQNAS (Position 22 counts on whole YefM) [YefM11-23 analog with leucine 22 replaced by alanine], the binding result in test [4] was “binds”.

B3: YefM13-25 peptide (peptide)
peptide: ISYSEARQNLSAT
notes: It follows from 'YefM11-23-YefM15-27', three tridecamers with a shift of two amino acids; also called second of the three tridecamers YefM11-23-YefM15-27
Regarding B3, the binding result in test [2] is given as “binds”.
In the case of RTISYSEAAQNLS (Arrayed on a cellulose membrane) [YefM11-23 analog with arginine 19 replaced by alanine], the binding result in test [5] was “no binding”.
The same measure, in the same setting: next, RTISYSEAGQNLS (Arrayed on a cellulose membrane) [YefM11-23 analog with arginine 19 replaced by glycine]: “no binding”.
For RTISYSEARQNGS (Position 22 counts on whole YefM) [YefM11-23 analog with leucine 22 replaced by glycine], the binding result in test [4] is “binds”.

Values taken from patent publication US20070298043A1 (RAMOT AT TEL AVIV UNIVERSITY, published 2007).
